Experiments:
Assay in all cases: EMSA
[1] = system: TALE_9a_26 R266A (Xanthomonas axonopodis scaffold (designed TALE)); conditions: 5mC at strand 1 nt 16 (site position 5, T = 0); EMSA: 20 mM Tris pH 8, 50 mM NaCl, 5 mM MgCl2, 5% glycerol; 0.1 pmol TALE + 0.5 pmol duplex in 10 uL; RT 30 min then ice 30 min; gel 0.5x TAE 4 C; GFP readout
[2] = system: TALE_9a_26 K262A (Xanthomonas axonopodis scaffold (designed TALE)); conditions: 5mC at strand 1 nt 16 (site position 5, T = 0); EMSA: 20 mM Tris pH 8, 50 mM NaCl, 5 mM MgCl2, 5% glycerol; 0.1 pmol TALE + 0.5 pmol duplex in 10 uL; RT 30 min then ice 30 min; gel 0.5x TAE 4 C; GFP readout
[3] = system: TALE_9a_26 R236A (Xanthomonas axonopodis scaffold (designed TALE)); conditions: 5mC at strand 1 nt 16 (site position 5, T = 0); EMSA: 20 mM Tris pH 8, 50 mM NaCl, 5 mM MgCl2, 5% glycerol; 0.1 pmol TALE + 0.5 pmol duplex in 10 uL; RT 30 min then ice 30 min; gel 0.5x TAE 4 C; GFP readout
[4] = system: TALE_9a_26 (5*) (Xanthomonas axonopodis scaffold (designed TALE)); conditions: 5mC at strand 1 nt 16 (site position 5, T = 0); EMSA: 20 mM Tris pH 8, 50 mM NaCl, 5 mM MgCl2, 5% glycerol; 0.1 pmol TALE + 0.5 pmol duplex in 10 uL; RT 30 min then ice 30 min; gel 0.5x TAE 4 C; GFP readout
[5] = system: TALE_9a_26 (3) (Xanthomonas axonopodis scaffold (designed TALE)); conditions: 5mC at strand 1 nt 16 (site position 5, T = 0); EMSA: 20 mM Tris pH 8, 50 mM NaCl, 5 mM MgCl2, 5% glycerol; 0.1 pmol TALE + 0.5 pmol duplex in 10 uL; RT 30 min then ice 30 min; gel 0.5x TAE 4 C; GFP readout
[6] = system: TALE_9a_26 K171A/R173A (Xanthomonas axonopodis scaffold (designed TALE)); conditions: 5mC at strand 1 nt 16 (site position 5, T = 0); EMSA: 20 mM Tris pH 8, 50 mM NaCl, 5 mM MgCl2, 5% glycerol; 0.1 pmol TALE + 0.5 pmol duplex in 10 uL; RT 30 min then ice 30 min; gel 0.5x TAE 4 C; GFP readout
[7] = system: TALE_2c_26 (23) (Xanthomonas axonopodis scaffold (designed TALE)); conditions: 5mC at strand 1 nt 24 (site position 13, T = 0); EMSA: 20 mM Tris pH 8, 50 mM NaCl, 5 mM MgCl2, 5% glycerol; 0.1 pmol TALE + 0.5 pmol duplex in 10 uL; RT 30 min then ice 30 min; gel 0.5x TAE 4 C; GFP readout
[8] = system: TALE_2c_26 (3) (Xanthomonas axonopodis scaffold (designed TALE)); conditions: 5mC at strand 1 nt 24 (site position 13, T = 0); EMSA: 20 mM Tris pH 8, 50 mM NaCl, 5 mM MgCl2, 5% glycerol; 0.1 pmol TALE + 0.5 pmol duplex in 10 uL; RT 30 min then ice 30 min; gel 0.5x TAE 4 C; GFP readout

Row | Sequence | binding signal (fold C/5mC selectivity vs WT TALE) [1] | binding signal (fold C/5mC selectivity vs WT TALE) [2] | binding signal (fold C/5mC selectivity vs WT TALE) [3] | binding signal (fold C/5mC selectivity vs WT TALE) [4] | binding signal (fold C/5mC selectivity vs WT TALE) [5] | binding signal (fold C/5mC selectivity vs WT TALE) [6] | binding signal (fold C/5mC selectivity vs WT TALE) [7] | binding signal (fold C/5mC selectivity vs WT TALE) [8]
1 | GGCCAGCCAGTCAGCCGAAGGCTCCATGCTGCTCCCCGCCGCCGGC (double strand) [9a_26 5mC] | 3 | 3 | 1.4 | 7.2 | 5.7 | 2.9 |  | 
2 | CATCCATGAGTGAGAAACCCTGGCGGGGTGTGACATCCTCCCCCGG (double strand) [2c_26 5mC] |  |  |  |  |  |  | 1.1 | 2.5

— paper PMC5678105
